Assay results from patent publication US11029303B2, “PAH antibodies and uses thereof” (The Administrators of the Tulane Educational Fund, priority 2015, dated 2021).
“Also recorded” adds a separate entry of the source.

How the values were obtained:
Type in all cases: binding
[1] = Competitive ELISA with purified scFv, ligand 4-MP; settings: Phen-BSA coated plate
Method: (§1) Competitive ELISA was performed in 96 well high binding plates (Corning, Corning, N.Y.). Each well was coated with 2 μg/ml antigen at 4° C. overnight and blocked with 3% BSA. Antibody scFv was incubated in the antigen-coated well with or without soluble competitor, and the binding of scFv was accessed using anti-myc antibody (9E10) and goat-antimouse-HPR antibody (Sigma Aldrich, MO). The HRP signal was detected by adding Sureblue TMB microwell peroxidase substrate (KPL, Gaithersburg, Md.) and the reaction was stopped after 5 minutes using 1 M HCl. The incubation steps were performed at room temperature for an hour. […]
(§2) Competitive ELISA or indirect ELISA was performed in 96-well high binding plates (Corning, Corning, N.Y.). […] The HRP signal was detected by adding Sureblue TMB microwell peroxidase substrate (KPL, Gaithersburg, Md.) and the reaction was stopped after 5 min using 1N HCl. The quantified signals were measured by reading […] values from microplate photometer. […]
(§3) Since A10, D7 and G8 represent three distinct family based on the sequence alignment, the inventors next explored the binding characteristics of these three clones as models to of the antibodies present in the immune library. Purified scFv were prepared and analyzed by competitive ELISA for their abilities to recognize unsubstituted phenanthrene or methylated phenanthrenes, as shown in FIG. 55. […]

[2] = Competitive flow cytometry of monoclonal yeast cells; settings: soluble Phen versus 2-MePhen
Method: For flow cytometry, the yeast library was incubated in growth medium SD-CAA at 30° C. overnight for activation. The next day, activated yeast cells were diluted in induction medium SG/R-CAA at OD600=0.5, and cultured again at 30° C. for 16 hrs. After induction, 10^7 induced yeast cells (OD600=0.5) were washed twice with 0.5 ml wash buffer I (0.5% BSA supplemented with 2 mM EDTA), and once with 0.5 ml wash buffer II (0.5% BSA). Yeast cells were first incubated with 50 μl competitor (phenanthrene or 2-methylphenanthrene, 200 μM in PBS containing 1% DMSO) for 30 min with rotation at 25° C. An additional aliquot (50 μl) of biotinylated protein-conjugate (BSA-biotin, phen-BSA-biotin, or 2mp-BSA-biotin at concentrations between 1 and 100 nM) containing 2 μg/ml anti-myc antibody 9E10 was then added and the cells were incubated for another 30 min. Yeast cells were washed 3 times with wash buffer II and stained with 4 μg/ml goat-antimouse-PE (Life Technologies, Grand Island, N.Y.) and 10 μg/ml streptavidin-Alexa633 (Life Technologies, Grand Island, N.Y.) in the dark room at 4° C. for an hour. The stained yeast cells were washed three times with wash buffer II and resuspended in 1 ml PBS for flow-cytometry analysis. The selected yeast population was sorted into 2 ml pre-warmed YPD medium, and incubated at 30° C. without shaking for 30 min before transferring into 30° C. shaker for two days. The sorted pool was analyzed again by flow cytometry using the same staining procedure. […]
Yeast cells collected after 2nd sort were spread onto agar plates at various dilution level to obtain isolated single colonies. […] A total of 184 individual clones sorted from Pool 1 were picked and analyzed for their binding to Phen-BSA-Biotin in the presence of soluble Phen or 2-MePhen.

[3] = Cross-reactivity of scFv clones against EPA 16 PAHs (competitive ELISA); settings: for cross-reactivity / inhibition by the 16 EPA PAHs: 50 μM PAH, less than 20% decrease = non-reactive
Method: (§4) Competitive ELISA was performed similar as described in Example 3, except that an anti-myc antibody (9E10) was added before applying goat-antimouse-HPR secondary antibody to detect myc-tag on scFv construct.
(§5) A real-world field sample is a complex mixture and contains a variety of PAH compounds. An understanding of the abilities of antibody to recognize various PAHs can greatly facilitate the development and application of these antibodies into field studies. In the final assessment, the inventors determined the cross-reactivity of these three scFv clones among 16 structurally related EPA priority PAH species via competitive ELISAs. First, the inventors inhibited the binding of scFv to the immobilized Phen-BSA by high concentrations (50 μM) of PAHs to determine if the scFv can recognize the ligand.

[4] = Cross-reactivity competitive ELISA, ligand indeno-[1,2,3-cd]-pyrene
Method: as §4, §5

[5] = Competitive ELISA with purified scFv, ligand 3-MP; settings: Phen-BSA coated plate; 5% DMSO
Method: as §1, §2, §3

[6] = Cross-reactivity competitive ELISA, ligand pyrene; settings: ligand 200 μM to 0.091 μM; read-out: affinity (IC50)
Method: as §4, §5

[7] = Cross-reactivity competitive ELISA, ligand fluoranthene; settings: ligand 200 μM to 0.091 μM; read-out: affinity (IC50)
Method: as §4, §5

[8] = Competitive ELISA with D7 in artificial seawater (ONR7a) and crude oil
Method: FIG. 74 is (A) a graph showing a comparison of competitive ELISA for phenanthrene, an abundant PAH in crude oil, in phosphate-buffered saline (ionic strength of serum) and ONR7a, an artificial environmental matrix that mimics seawater. The limit of detection of phenanthrene in this matrix is ˜1 μM. Compared with two buffer PBS and ONR7A (article seawater), the IC50s of two curves were no different than 2 fold.
FIG. 77 is a bar graph showing that the D7 antibody can detect the model PAH, phenanthrene in a background of crude oil (4 and 0.8 mL/L). At both concentrations of crude oil, the presence of 500 μM phenanthrene decreased the absorbance in the immunoassay by 30% (*, p<0.05).
The D7 antibody can detect phenanthrene in the presence of crude oil at concentrations similar to those found in oil spills (0.8-4 mL per liter of seawater). At both concentrations tested (0.8 and 4 mL crude oil/L of synthetic seawater), the D7 antibody was able to detect phenanthrene, as shown by the 30% decrease in absorbance in the competitive ELISA. This will form the basis for an ELISA to determine the measurement and degradation of PAHs in crude oil. (see FIG. 77).

[9] = Competitive ELISA with purified scFv, ligand phenanthrene; settings: Phen-BSA coated plate; 5% DMSO
Method: as §1, §2, §3

[10] = Competitive ELISA with purified scFv, ligand 2-MP; settings: Phen-BSA coated plate; 5% DMSO; read-out: affinity (IC50)
Method: as §1, §2, §3

[11] = Competitive ELISA with purified scFv, ligand 9-MP; settings: Phen-BSA coated plate; 5% DMSO
Method: as §1, §2, §3

Molecule	IC50 [1]	affinity ([1]; 5% DMSO)	inhibition of binding to Phen-BSA-Biotin by soluble competitors [2]	cross-reactivity / inhibition by the 16 EPA PAHs [3]	recognition of indeno-[1,2,3-cd]-pyrene [4]	IC50 [5]	IC50 [6]	IC50 [7]	sensitivity for fluoranthene, indeno-[1,2,3-cd]-pyrene and pyrene relative to phenanthrenes [3]	IC50 ([4]; ligand 200 μM to 0.091 μM, read-out: affinity (IC50))	decrease in absorbance in the immunoassay ([8]; 500 μM phenanthrene, crude oil 4 and 0.8 mL/L)	activity in artificial seawater matrix (ONR7a) ([8]; ONR7a)	recognition of parent phenanthrene [9]	IC50 [10]	recognition of 9-MP [11]	cross-reactivity / inhibition by the 16 EPA PAHs ([3]; listed as A10)
Clone G8: scFv, amino acid sequence SEQ ID NO: 45; binds 4-methylphenanthrene most tightly (protein) scFv: SAHAEAYLQQSGAELVRPGTSVKVSCKASGYVFTNFLIEWVKQRPGQGLEWIGVINPGNGGAAYNEKFKGKAILTADKSSSTAYMQLSSLTSDDSAVYFCARLPPSYDYDGDIDYWGQGTTVTVSSGGGGSGGGGSGGGARGGGGSDLVLTQSPASLAVALGQRATISCRASKSVTTSGYSLMHWYRQKPGQPPKLLIYPASNLESGVPARFSGSGSGTDFTLNIHPVEEEDAATYYCQHSRELPWTFGGGTKLEIKRAS	940 nM	sub-micromolar	unable to distinguish between the 2 soluble competitors	some cross-reactivity to other PAHs	did not recognize	14400 nM										
Clone D7: scFv, amino acid sequence SEQ ID NO: 42; binds unmethylated and methylated phenanthrenes alike (protein) scFv: SAHAEAYLQQSGAELVRPGTSVKVSCKASGYAFTKYLIEWVKQRPGQGLEWIGVINPGSGSTSYNEKFRYKAILTADTSSSTAYMQLSSLTSDDSAVYFCATIPASYRSDSLDCWGQGTTVTVSSGGGGSGGGGSGGGARGGGGSDTTVTQSHKFMSTSVGDRVSITCKASQDVGTAVAWYQQKPGQSPKLLIYWASTRHTGVPDRFTGSGSGTDFTLTISNVQSEDLADYFCQQYSSYPWTFGGGTKLEMKRAS			unable to distinguish between the 2 soluble competitors				1500 nM	1500 nM	about 4 fold	1500 nM	30%	active				
Clone A10: scFv, amino acid sequence SEQ ID NO: 37; binds methylated phenanthrenes, prefers 2-methylphenanthrene (protein) scFv: SAHAEAYLQQSGAELVKPGASVKLSCKASGYTFTSYWMHWVKQRPGQGLEWIGEINPRNGRSNYNEKFKNKATVTVDKYSNTAYMQLSSLTSDDSAVYYCTRDGGDYWGQGTTVTVSSGGGGSGGGGSGGGARGGGGSDIVLTQSHKFMSTSVGDRVSITCKASQDVGTAVAWYQQKPGQSPKLLIYWASTRHTGVPDRFTGSGSGTDFTLTISNVQSEDLADYFCQQYSSYPLTFGGGTKLEMKRAS			some tendency for the 2-MePhen over unsubstituted Phen										did not recognized	8280 nM	did not recognized	None of the 16 PAHs showed significant inhibition; also recorded: no cross-reactivity to other PAHs
